From patent publication US10976317B2, “Systematic discovery, maturation and extension of peptide binders to proteins” (Roche Sequencing Solutions, Inc., priority 2013, dated 2021)

What follows are substances tested against T1, human prostate specific antigen (PSA) (Homo sapiens, UniProt P07288) (assay: PSA binding assay on 5-mer peptide array (biotin-labelled PSA, Streptavidin Cy5 staining, fluorescence signal)). Details: 5-mer Array; rank in the list of 405 sequences with the highest average signal intensity; PSA 100 ng/ml, 25° C., 12 hrs.
T1 construct: biotin (chemical label, NHS-PEG4-biotin on amines)
T1 sequence (P07288 25-261): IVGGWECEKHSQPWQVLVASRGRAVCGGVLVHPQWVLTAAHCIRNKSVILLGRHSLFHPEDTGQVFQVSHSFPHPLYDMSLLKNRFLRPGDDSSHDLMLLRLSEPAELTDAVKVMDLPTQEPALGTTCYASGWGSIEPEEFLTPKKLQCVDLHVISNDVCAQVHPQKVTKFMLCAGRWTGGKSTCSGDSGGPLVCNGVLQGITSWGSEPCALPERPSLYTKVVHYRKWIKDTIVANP
Excerpt: Array Design: 5-mer array was designed by using all combinations of 18 natural amino acids excluding cysteine and methionine, any dimer or a longer repeat of the same amino acid, as well as any peptide containing HR, RH, HK, KH, RK, KR, HP, and PQ sequences to create a library of 1,360,732 unique peptides. Extension Arrays were designed by extending sequences selected from 5-mer arrays experiments by two amino acids from both N- and C-terminus using all 20 natural amino acids. Double Substitution/Deletion Arrays were designed by extension of sequences identified in the extension array experiments with glycine (G) amino acid to make them 11-mer peptides and creating a library that includes all possible single- and double substitution/deletion variants of the original sequence.
Array Synthesis: 5-mer Arrays were synthesized with 5 cycles of synthesis using a mixture of G and S amino acids in a 3:1 ratio, respectively at the N- and C-terminus of each of the 5-mer peptide. Extension and Double Substitution/Deletion Arrays were synthesized directly without using flanking wobble synthesis.
Binding Assay: PSA labelled with biotin using EZ-Link NHS-PEG4-biotinylation kit (Thermo Fisher Sci., Inc. Rockford, Ill.) was incubated in SecureSeal hybridization chamber (Grace Bio-Labs, Bend, Ore.) at concentration 100 ng/ml in 1×TE binding buffer with 1% alkali soluble casein at 25° C. for 12 hrs. Array was washed 3× with 1×TE buffer and stained with Streptavidin Cy5 in 1× binding buffer with 1% alkali soluble casein at 25° C. for 1 hr, and washed 3× with 1×TE buffer and finally with 0.1×TE buffer and scanned using a 2 micrometer MS200 scanner (Roche/Nimblegen, Madison, Wis.).
Data analysis: Image analysis and signal extraction performed using NimbleGen DEVA software, and peptides with fluorescent signal are identified. The 5-mer sequences for the binding peptides are identified and clustered based on distances using the standard BLOSUM 62 substitution matrix as implemented by an R package ‘PEPLIB’ (see, White et al., 2013, cited above). The distances of the 5-mer peptides are plotted on the first two components of a PCA plot. Consensus motifs for each cluster are reported in the graph.

| Substance | rank by binding signal to PSA |
| --- | --- |
| WEVHL | 28 |
| FEVYL | 1 |
| WTVYA | 3 |
| RSILY | 307 |
